In patent publication CN108727489A (GUANGZHOU 8TH PEOPLES HOSPITAL; UNIV TSINGHUA, dated 2018):

What was measured:
[1] = target: 寨卡病毒GZ01株的E蛋白 (on virus particles) (Zika virus GZ01 strain); assay: cell-based or functional assay
E-His 6 融合蛋白 = target: T1, E-His 6 融合蛋白 (Zika virus, UniProt A0A024B7W1 292-693); assay: ELISA screen of memory B cell culture supernatants on coated E-His6 fusion protein
T1 construct: Expressed in 293T cells, purified on a Ni column and by gel filtration; Used as the ELISA coating antigen; also called E-His6 fusion protein; 寨卡病毒的E蛋白
T1 sequence (A0A024B7W1 292-693, tags left off): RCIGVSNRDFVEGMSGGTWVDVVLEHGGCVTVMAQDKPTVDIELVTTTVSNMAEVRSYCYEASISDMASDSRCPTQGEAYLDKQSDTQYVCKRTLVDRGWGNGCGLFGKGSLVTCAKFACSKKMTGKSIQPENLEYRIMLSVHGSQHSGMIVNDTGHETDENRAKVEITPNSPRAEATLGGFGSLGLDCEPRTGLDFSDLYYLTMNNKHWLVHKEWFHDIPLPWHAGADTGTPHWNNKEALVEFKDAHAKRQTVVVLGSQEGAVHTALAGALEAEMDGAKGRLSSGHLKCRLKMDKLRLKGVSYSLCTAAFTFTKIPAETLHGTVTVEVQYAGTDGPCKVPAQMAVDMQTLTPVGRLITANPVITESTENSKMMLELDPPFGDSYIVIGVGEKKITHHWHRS

B1: ZK2C2 (antibody, human IgG1, lambda, V domains shown)
VH: EVQLLESGGGVVQPGRSLRLSCAGSGFTFSSYGMHWVRQAPGKGLEWVAVISYDGSNKYYVDSVKGRFTISRDNSRNTLYLQMNNLKAEDTAVYYCAKGHLIDWGQGTLVTVSS
VL: QLVLTQPPSASGTPGQRVTISCSGSSSNIGRNIVNWYQQFPGTTPKLLIYGTNQRPSGVPDRFSGSKSGTSASLAISGLQSEDETNYYCAAWDDSLNGWLFGGGTKLTVLG
notes: also called 单克隆抗体ZK2C2; ZK2C2抗体
In the case of B1, the “中和百分比为50%时的抗体浓度 (IC50), plaque reduction on Vero cells” value [1] is reported as 3.8 µg/mL and the binding result (E-His 6 融合蛋白) is reported as “binds”.
